One substance from publication PMC6128213 can be followed below.

In this assay the target is human fibronectin (human) (UniProt P02751). Briefly: AFM single molecule force spectroscopy.

In turn, “pilus-1 adhesin RrgA from Streptococcus pneumoniae (natural protein)” yielded a most probable rupture force fMP of 51.6 pN.
